Data from paper PMC5352143.
Where “and” joins values, the source holds several entries; their conditions need not be identical. Equal entries are not always repeated. Where two headings read alike, the source gives them in different places.

Tests used:
[1] = target: transferrin (Homo sapiens) (UniProt P02787); conditions: cited from earlier work
[2] = target: LbpB (N. meningitidis MC58, without amino acids 1-15) after TEV cleavage of MBP-LbpB (Neisseria meningitidis strain MC58); experiment: cross-linking; XL-MS: LbpB (MBP fusion or TEV-cleaved) and hLf equimolar in 50 mM Tris-HCl, 50 mM NaCl, pH 7.4, 4 h RT, DSS 30 min, bands cut from SDS-PAGE, LC-MS/MS
[3] = target: MBP-LbpB (lactoferrin binding protein B, N. meningitidis MC58, without amino acids 1-15) (Neisseria meningitidis strain MC58); experiment: as above
[4] = target: MBP-LbpB (lactoferrin binding protein B, N. meningitidis MC58, without amino acids 1-15) (Neisseria meningitidis strain MC58); experiment: as above; remark: listed apart in the source
[5] = target: intact LbpB with N-terminal biotin acceptor peptide, fused to MBP (BLI construct) (Neisseria meningitidis strain MC58); experiment: BLI; Octet RED 96; biotinylated MBP-LbpB constructs loaded from crude E. coli extracts on streptavidin sensors; holo-hLf 10-800 nM in 1 X PBS pH 7.4, 0.002% Tween-20, 0.1 mg/mL BSA; steady-state fit, apparent KD
[6] = target: LbpB N-terminal lobe with N-terminal biotin acceptor peptide, fused to MBP (BLI construct) (Neisseria meningitidis strain MC58); experiment: as above
[7] = target: LbpB with the anionic loops removed (LbpB-lgsm), N-terminal biotin acceptor peptide, fused to MBP (BLI construct) (Neisseria meningitidis strain MC58); experiment: as above

Chain of transferrin (Homo sapiens) (P02787 20-698): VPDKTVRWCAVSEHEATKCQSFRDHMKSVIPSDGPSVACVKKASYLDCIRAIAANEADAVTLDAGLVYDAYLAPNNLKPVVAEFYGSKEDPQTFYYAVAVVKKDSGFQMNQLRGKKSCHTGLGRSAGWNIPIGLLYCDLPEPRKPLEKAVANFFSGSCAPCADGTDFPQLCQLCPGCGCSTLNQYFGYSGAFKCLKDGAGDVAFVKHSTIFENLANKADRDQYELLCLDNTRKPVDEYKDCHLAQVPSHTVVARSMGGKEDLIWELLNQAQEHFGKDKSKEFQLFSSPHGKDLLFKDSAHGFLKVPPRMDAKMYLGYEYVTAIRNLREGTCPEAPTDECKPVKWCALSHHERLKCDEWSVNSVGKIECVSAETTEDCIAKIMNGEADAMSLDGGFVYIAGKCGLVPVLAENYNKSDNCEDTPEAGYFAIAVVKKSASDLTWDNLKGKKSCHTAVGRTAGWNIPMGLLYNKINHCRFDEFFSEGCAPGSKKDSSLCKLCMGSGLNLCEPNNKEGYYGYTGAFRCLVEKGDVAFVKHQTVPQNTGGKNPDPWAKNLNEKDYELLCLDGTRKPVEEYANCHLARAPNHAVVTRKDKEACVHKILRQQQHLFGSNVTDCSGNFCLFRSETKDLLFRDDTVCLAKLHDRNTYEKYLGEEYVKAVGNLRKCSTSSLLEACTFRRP

In the case of TbpB (from UniProt Q09057), the Kd [1] is given as 50 nM.

In the case of “holo human lactoferrin (iron-loaded hLf) (ligand)”, the stoichiometry N [2] is reported as 1 hLf:LbpB and 2 hLf:LbpB, the stoichiometry N [3] is reported as 1 hLf:LbpB and the stoichiometry N [4] is reported as 2 hLf:LbpB. It also gave a Kd [5] of 72.8 nM, a Kd [6] of 126 nM and a Kd [7] of 140 nM.
